Experimental findings from publication PMC3045457, “Evolution of Acetylcholinesterase and Butyrylcholinesterase in the Vertebrates: An Atypical Butyrylcholinesterase from the Medaka Oryzias latipes” (PLoS ONE, 2011) are described below.

Series [1] deals with T1, atypical BChE from O. latipes (Oryzias latipes, UniProt D5L5S0).
T1 construct: GPI-anchored amphiphilic dimer (G2a)
T1 sequence (D5L5S0 26-589): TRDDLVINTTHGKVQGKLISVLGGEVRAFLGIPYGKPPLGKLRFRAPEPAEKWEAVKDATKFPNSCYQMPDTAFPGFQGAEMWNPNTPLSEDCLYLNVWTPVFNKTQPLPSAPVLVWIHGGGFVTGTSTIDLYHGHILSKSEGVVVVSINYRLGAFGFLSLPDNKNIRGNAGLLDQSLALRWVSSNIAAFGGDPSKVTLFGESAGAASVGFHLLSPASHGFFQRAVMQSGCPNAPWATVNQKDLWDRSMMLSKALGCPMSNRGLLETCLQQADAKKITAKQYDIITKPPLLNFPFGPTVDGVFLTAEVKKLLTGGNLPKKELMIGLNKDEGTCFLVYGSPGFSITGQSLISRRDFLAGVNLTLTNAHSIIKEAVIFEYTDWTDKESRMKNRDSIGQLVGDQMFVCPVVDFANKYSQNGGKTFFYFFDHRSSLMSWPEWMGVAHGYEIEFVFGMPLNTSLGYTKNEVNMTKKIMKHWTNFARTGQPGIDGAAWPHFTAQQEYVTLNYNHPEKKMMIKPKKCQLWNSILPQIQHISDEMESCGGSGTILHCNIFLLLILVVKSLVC
In words: Ellman assay, COS-7 extract, three-parameter logistic fit. The class given is biochemical. From the text: Ellman assay, COS-7 extract, three-parameter logistic fit on atypical BChE from O. latipes

Substrate in series [2]: CCC(=O)SCC[N+](C)(C)C
Put plainly: Ellman assay, COS-7 extract, fit with substrate inhibition (Km, Kss, b). The format is biochemical, Oryzias latipes. The note with it: 100 mM NaHPO4 pH 7, 0.3 mM DTNB, 167 mM NaCl, 258 µM Triton X-100. An excerpt:
(§1) Ellman assay, COS-7 extract, fit with substrate inhibition (Km, Kss, b) on atypical BChE from O. latipes
In general terms: In Ellman's method for cholinesterases, released thiocholine reacts with DTNB.

Substrate in series [3]: CC(=O)SCC[N+](C)(C)C
The description is as above. The format is biochemical, Oryzias latipes. The note with it: 100 mM NaHPO4 pH 7, 0.3 mM DTNB, 167 mM NaCl, 258 µM Triton X-100.
Text: as §1

Substrate in series [4]: CCCC(=O)SCC[N+](C)(C)C
The series is described as above. The format is biochemical, Oryzias latipes. The following applies: 100 mM NaHPO4 pH 7, 0.3 mM DTNB, 167 mM NaCl, 258 µM Triton X-100.
Text: as §1

Structures can show the parent of a compound that is named as a salt. Where two headings read alike, the source gives them in different places.

`CCN(CC)C(C)CN1c2ccccc2Sc2ccccc21` (stereo not shown) [ethopropazine, 10-(2-diethylaminopropyl) phenothiazine hydrochloride]: the IC50 in series [1] (read-out: IC50 M) is 0.898 µM.

Consider `C=CC[N+](C)(C)c1ccc(CCC(=O)CCc2ccc([N+](C)(C)CC=C)cc2)cc1` [BW284c51, [4-[5-[4-(dimethyl-prop-2-enyl-ammonio)phenyl]-3-oxo-pentyl]phenyl]-dimethyl-prop-2-enyl-azanium dibromide], for which the IC50 in series [1] (read-out: IC50 M) amounted to 480 µM.

As for `CC(C)NP(=O)(NC(C)C)OP(=O)(NC(C)C)NC(C)C` [iso-OMPA, N-[bis(propan-2-ylamino)phosphoryloxy-(propan-2-ylamino)phosphoryl]propan-2-amine], the IC50 in series [1] (read-out: IC50 M) is 4580 µM.

In series [1], `CNC(=O)Oc1ccc2c(c1)[C@]1(C)CCN(C)[C@@H]1N2C` [physostigmine, (3aS-cis)-1,2,3,3a,8,8a-hexahydro-1,3a,8-trimethylpyrrolo[2,3-b]indol-5-ol methylcarbamate] gave an IC50 of 0.0585 µM.

B1: atypical BChE from O. latipes (Oryzias latipes) (protein)
chain: T1 sequence (D5L5S0 26-589)
notes: GPI-anchored amphiphilic dimer (G2a)
Regarding B1, in series [2], the Km turned out to be 156 ± 15 µM, the kcat is 512 ± 40 s⁻¹ and the kcat/Km worked out at 3.33e+06 ± 83300 M⁻¹ s⁻¹. Further, in series [3], the Km is 270 ± 18 µM, the kcat came out at 460 ± 18.3 s⁻¹ and the kcat/Km amounted to 1.72e+06 ± 83300 M⁻¹ s⁻¹. For the same molecule, in series [4], the Km came out at 72 ± 6 µM, the kcat is 117 ± 5 s⁻¹ and the kcat/Km came to 1.65e+06 ± 117000 M⁻¹ s⁻¹.

Broadly, the IC50 is the midpoint of a concentration-inhibition curve. Broadly, the Km is the concentration of substrate that gives half-maximal velocity. By kcat is commonly meant the maximal rate divided by the concentration of active sites. Broadly, the kcat/Km is the second-order rate constant that governs catalysis at low substrate concentration.
